Measured values published in the Immune Epitope Database (IEDB).

Columns and labels:
Experiment in all cases: IEDB peptide-MHC binding, purified MHC/competitive/radioactivity; filed as Kd, often an IC50 or EC50 that approximates it; ≥ and ≤ were set here for values at or beyond the usual limits of such assays
HLA-A*03:01 = molecular target: HLA-A*03:01
HLA-A*11:01 = molecular target: HLA-A*11:01
HLA-A*31:01 = molecular target: HLA-A*31:01
HLA-A*33:01 = molecular target: HLA-A*33:01
HLA-A*68:01 = molecular target: HLA-A*68:01
[1] = source organism: SARS coronavirus Tor2
[2] = source organism: Vaccinia virus WR
[3] = source organism: Vaccinia virus Copenhagen
[4] = source organism: Dengue virus 3 Martinique/1243/1999
[5] = source organism: Dengue virus 4 Philippines/H241/1956
[6] = source organism: Mammarenavirus machupoense
[7] = source organism: Dengue virus 2 Jamaica/1409/1983
[8] = source organism: Dengue virus 1 Brazil/97-11/1997
[9] = source organism: Mammarenavirus brazilense
[10] = source organism: Mammarenavirus guanaritoense
[11] = source organism: Dengue virus 1 Nauru/West Pac/1974

Sequence | Kd (HLA-A*03:01; [2]) [nM] | Kd (HLA-A*11:01; [2]) [nM] | Kd (HLA-A*31:01; [2]) [nM] | Kd (HLA-A*33:01; [2]) [nM] | Kd (HLA-A*68:01; [2]) [nM] | also measured
KLSYGIATVR |  |  |  |  |  | Kd (HLA-A*03:01; [1]): 879 nM; Kd (HLA-A*11:01; [1]): 1420 nM; Kd (HLA-A*31:01; [1]): 278 nM; Kd (HLA-A*33:01; [1]): 15300 nM; Kd (HLA-A*68:01; [1]): 89 nM
KMLTFDVFR | 82.9 | 2.96 | 3.97 | 365 | 77.2 | 
KQLCYCPASK | 27.1 | 13.9 | 31 | ≥ 31100 | 11300 | 
KSCICYGSY | 437 | 6.88 | 418 | 364 | ≥ 29700 | 
KSIENKHQRR | 11100 | 198 | 0.608 | 9320 | 11200 | 
KSQAKKPEVR | ≥ 22000 | 10800 | 299 | ≥ 37200 | ≥ 70200 | 
KSTSPTRTWK |  |  |  |  |  | Kd (HLA-A*03:01; [3]): 11.1 nM; Kd (HLA-A*11:01; [3]): 21.7 nM; Kd (HLA-A*31:01; [3]): 101 nM; Kd (HLA-A*33:01; [3]): 6860 nM; Kd (HLA-A*68:01; [3]): 472 nM
KTNDINVRR | 112 | 30.1 | 2.24 | 16700 | 12.1 | 
KTYIDVNEEY | 1800 | 777 | 1880 | ≥ 70000 | 10500 | 
LAILFEEVMR |  |  |  |  |  | Kd (HLA-A*68:01; [4]): 29.7 nM
LFSTSAADIK | 19600 | 4790 | ≥ 70000 | ≥ 70000 | 57.8 | 
LIDTTSRELK | 38.9 | 162 | 147 | 716 | 432 | 
LIIYYQLAGY | 137 | 5120 | ≥ 25700 | ≥ 67600 | 8000 | 
LITLILSNK | 20.9 | 19 | 2080 | 6720 | 32.7 | 
LLMHLVSLY | 2.67 | 7.11 |  | ≥ 52500 | 9.95 | 
LLNRFTMTHR |  |  |  |  |  | Kd (HLA-A*31:01; [4]): 15.2 nM
LLNVTYNIK |  |  |  |  |  | Kd (HLA-A*03:01; [3]): 7700 nM; Kd (HLA-A*11:01; [3]): 4830 nM; Kd (HLA-A*31:01; [3]): ≥ 77900 nM; Kd (HLA-A*33:01; [3]): ≥ 77700 nM; Kd (HLA-A*68:01; [3]): 11300 nM
LLTDTIESAK | 190 | 84.7 | 10100 | 2340 | 667 | 
LMCHATFTTR |  |  |  |  |  | Kd (HLA-A*31:01; [5]): 12.7 nM; Kd (HLA-A*33:01; [5]): 97.1 nM
LNNSFYYMR |  |  |  |  |  | Kd (HLA-A*03:01; [6]): ≥ 78000 nM; Kd (HLA-A*11:01; [6]): 5880 nM; Kd (HLA-A*31:01; [6]): 4.64 nM; Kd (HLA-A*33:01; [6]): ≥ 21700 nM; Kd (HLA-A*68:01; [6]): 15.3 nM
LSCIRNASK | 484 | 500 | 300 | 784 | 276 | 
LSSIKSKSR | 3070 | 4160 | 755 | 1570 | 612 | 
LTDTIESAK | 1070 | 125 | 8.11 | 3.04 | 25.7 | 

Sequence | Kd (HLA-A*03:01; [2]) [nM] | Kd (HLA-A*11:01; [2]) [nM] | Kd (HLA-A*31:01; [2]) [nM] | Kd (HLA-A*33:01; [2]) [nM] | Kd (HLA-A*68:01; [2]) [nM] | also measured
LVTRKCPQK | 63 | 17.3 | 1320 | 5110 | 19.3 | 
MISRMLINR |  |  |  |  |  | Kd (HLA-A*11:01; [7]): 258 nM; Kd (HLA-A*31:01; [7]): 4.37 nM; Kd (HLA-A*33:01; [7]): 9.7 nM; Kd (HLA-A*68:01; [7]): 22.7 nM
MLNIMNRRKR |  |  |  |  |  | Kd (HLA-A*31:01; [8]): ≥ 60800 nM
MSYTMCSGK |  |  |  |  |  | Kd (HLA-A*03:01; [5]): 3.04 nM; Kd (HLA-A*68:01; [5]): 5.87 nM
MVNHSTYYVH |  |  |  |  |  | Kd (HLA-A*03:01; [9]): 10100 nM; Kd (HLA-A*11:01; [9]): 6280 nM; Kd (HLA-A*31:01; [9]): 544 nM; Kd (HLA-A*33:01; [9]): 3020 nM; Kd (HLA-A*68:01; [9]): 391 nM
MWQLMYFHR |  |  |  |  |  | Kd (HLA-A*31:01; [8]): ≥ 24400 nM; Kd (HLA-A*33:01; [8]): 1.43 nM
NIKPSKENR | 7390 | ≥ 30400 | 545 | 338 | 10.5 | 
NMLNIMNRRK |  |  |  |  |  | Kd (HLA-A*03:01; source organism: Dengue virus 1 Singapore/S275/1990): 181 nM
NSTCYVFGLY | 161 | 19.5 | 3240 | 9000 | 8.95 | 
NSTTDAEACY | ≥ 70100 | 17800 | ≥ 70000 | ≥ 70000 | 7370 | 
NSYSLIRLSH |  |  |  |  |  | Kd (HLA-A*03:01; [10]): 9960 nM; Kd (HLA-A*11:01; [10]): ≥ 24600 nM; Kd (HLA-A*31:01; [10]): 9770 nM; Kd (HLA-A*33:01; [10]): 3250 nM; Kd (HLA-A*68:01; [10]): 10200 nM
NWLARVGRER |  |  |  |  |  | Kd (HLA-A*33:01; [7]): 242 nM
RKTFVELMRR |  |  |  |  |  | Kd (HLA-A*31:01; [8]): 51.2 nM
RTAIHSLYGR |  |  |  |  |  | Kd (HLA-A*11:01; [10]): 142 nM
RVSTVSQLAK |  |  |  |  |  | Kd (HLA-A*03:01; [11]): 6.04 nM; Kd (HLA-A*11:01; [11]): 40.3 nM
SIFKLTYQNK |  |  |  |  |  | Kd (HLA-A*03:01; [8]): 15.2 nM; Kd (HLA-A*11:01; [8]): 65.9 nM
SISNITTATR |  |  |  |  |  | Kd (HLA-A*31:01; [5]): 626 nM; Kd (HLA-A*33:01; [5]): 10.6 nM; Kd (HLA-A*68:01; [5]): 13.6 nM
STMPLVMAWR |  |  |  |  |  | Kd (HLA-A*11:01; [5]): 14.8 nM; Kd (HLA-A*31:01; [5]): 1.16 nM; Kd (HLA-A*33:01; [5]): 2.89 nM; Kd (HLA-A*68:01; [5]): 15.2 nM
TALAFHLTTR |  |  |  |  |  | Kd (HLA-A*31:01; [8]): ≥ 39800 nM; Kd (HLA-A*68:01; [8]): 101 nM
TVEAGRTLR |  |  |  |  |  | Kd (HLA-A*68:01; source organism: Dengue virus 2 Peru/IQT2913/1996): 13 nM
VTVASAAQR |  |  |  |  |  | Kd (HLA-A*68:01; [8]): 48.7 nM
YSMCTGKFK |  |  |  |  |  | Kd (HLA-A*11:01; [7]): 550 nM
